Source: patent US8323941B2, “Histone demethylation mediated by the nuclear amine oxidase homolog LSD1” (President and Fellows of Harvard College, priority 2004, dated 2012)

Experiments:
LSD1 [1] = target: T1, LSD1 (Homo sapiens, UniProt O60341); assay: LSD1 demethylation assay on nucleosomal substrates (mononucleosomes), Western blotting; format: biochemical; set-up: Full length (1-851aa) and C-terminal deleted (1-427 aa) human LSD1 cDNAs; 6xHis (N); made in house; host or cells: bacteria
Experimental: Preparation of mononucleosome. Mononucleosome was made according to a standard protocol (Tagami et al., 2004; Utley et al., 1996). Briefly, nuclear pellet from both TSA-treated or non-treated HeLa cells was homogenized for 60 times with type A pestle to obtain oligo-nucleosomes. The oligo-nucleosomes were then digested with micrococcal nuclease (40 units/mL) for 10 mins at 30° C. The nuclease is inactivated by 5 mM EDTA. Digested materials were spun at 14000 rpm for 3 mins. Resulting supernatant was spun again for additional 3 mins at the same speed. Supernatant from the second spin was subject to 10-25% glycerol gradient sedimentation. The monocleosome-containing fractions were identified by examining aliquots of fractions (treated with proteinase K) on DNA agarose gel. An aliquot of TSA-treated or non TSA-treated mononucleosome, a kind gift from Dr. Yoshihiro Nakatani's Lab in Dana Faber Cancer Institute, Harvard Medical School (Tagami et al., 2004), was used here as a control for the quality of mononucleosome made in our lab.
(§1) Demethylation assay. LSD1 demethylation activity on free histone or nucleosomal histone was carried out as previously reported (Shi et al., 2004). Briefly, bulk histones or mononucleosomes were incubated with purified His-LSD1 with or without purified His-CoREST, His-CoREST mutants, His-BHC80 and/or GST-HDAC1 in the histone demethylase activity (HDM) assay buffer (50 mM Tris pH8.5, 50 mM KCl, 5 mM MgCl, 0.5% BSA and 5% glycerol) from 10 mins up to 1 hour at 37° C. The demethylase activity of LSD1 under various conditions was evaluated by Western blotting using K4-H3 methylation-specific antibodies.

LSD1 [2] = target: T1, LSD1; assay: LSD1 demethylation assay on free (bulk) histones, Western blotting; format: biochemical; set-up: Full length (1-851aa) and C-terminal deleted (1-427 aa) human LSD1 cDNAs; 6xHis (N); made in house; host or cells: bacteria (IPTG induction); settings: H3-K4 demethylation, recombinant LSD1
Experimental: as §1

BHC80: PHD domain-containing component of the BRAF35/HDAC2 complex, recombinant
effect of added protein on ability of recombinant LSD1 to demethylate nucleosomal substrates (LSD1 [1]; bacterially purified protein added to recombinant LSD1): no effect | demethylase activity of LSD1/CoREST (LSD1 [1]; increasing amounts of BHC80, nucleosomal substrates): proportional decrease | effect on LSD1 demethylase activity on free histones (LSD1 [2]): significantly dampened
